# In patent US11655308B2, “HM-3 fusion protein and application thereof” (TASLY BIOPHARMACEUTICALS CO., LTD., priority 2017, dated 2023):
# “And” between values parts separate entries of the source, which are not always exact repeats. Equal entries are not always repeated.
# Columns and labels:
# [1] = Pharmacokinetics after single subcutaneous injection (double-antibody sandwich ELISA)
# Description: (1) 18 SD rats (half male and half female) were purchased and fed for one week.
# (2) Rats were divided into 3 groups, half male and half female, and weight of rats were recorded respectively.
# The blood was centrifuged at 12000 rpm/min to take 200 μL of supernatant, then the supernatant was diluted with PBS solution according to a ratio of 1:3, and finally placed in an EP tube and stored in a −80° C. refrigerator.
# (4) Biological samples were measured by double-antibody sandwich ELISA.
# (1) Coating, HM-3 monoclonal antibody was diluted with a coating buffer (CBS) in certain concentration, added to an ELISA plate and coated overnight.
# (2) Plate washing, the coating buffer was discarded, and the plate was washed by PBST for 3 times, and then dried by patting.
# (3) Sealing, a blocking buffer was added for sealing at 37.5° C., the plate washing process was repeated and the plate was dried by patting.
# (4) Addition of samples to be measured, the samples to be measured were added to the ELISA plate with multiple wells, and then incubated at 37.5° C.; the plate washing process was repeated and the plate was dried by patting.
# (5) Addition of a secondary antibody, the secondary antibody diluted proportionally was added for incubation at 37.5° C. The plate washing process was repeated and the plate was dried by patting.
# (6) Addition of the enzyme-labeled secondary antibody for reaction, the HRP-labeled secondary antibody which was diluted by 5% skim milk powder solution according to certain proportion was added for incubation at 37.5° C. The plate washing process was repeated and the plate was dried by patting.
# (7) Addition of a substrate, a TMB substrate in certain volume L was added for reaction in the dark.
# (8) Termination of the reaction, a certain amount of stop buffer was added to terminate the reaction.
# (9) Detection, read OD450 nm with a microplate reader.
# [2] = tested on: mice splenic lymphocyte proliferation stimulated by ConA; type: cell-based
# Description: Experimental method: mice orbit was by bloodletting to death, and immediately immersed in 75% ethanol for 5-10 min, and then the spleen was removed on a clean bench and placed in PBS. The spleen was placed on a sterile cell strainer (200 mesh) and ground with a syringe nozzle; during grinding process, PBS was added continuously; the slurry was collected and centrifuged (1000 rpm for 5 min), then cells were washed 3 times with Tris-ammonium chloride solution, and washed again with a medium, and then re-suspended in the medium. Finally, trypan blue living cell staining was performed on the cells, and the survival rate was more than 95%. The concentration of viable cells was adjusted to 2×10^6/mL. […] was added to each well of a 96-well plate, meanwhile, ConA (concanavalin to simulate splenocyte proliferation) and drugs were added to each well. Six duplicates were set in each group.
# The 96-well plate was incubated for 48 h in a 5% CO2 incubator at 37° C. 5 mg/mL of MTT was added to the 96-well plate, 20 μL for each well, and then it was incubated continuously for 4 h in the incubator. The culture medium in the 96-well plate was discarded and 100 μL DMSO was added to each well and mixed gently. Absorbance was measured by a microplate reader at the wavelength of 570 nm and reference wavelength of 630 nm.
# Proliferation inhibition rate (PI) was calculated according to formula:
# [formula] wherein, Atest is the absorbance of dosing group, and Acontrol is the absorbance of negative control. Test results were expressed as mean±SD, and statistical T test was performed. *P<0.05 indicates significant difference, **P<0.01 indicates extremely significant difference. Based upon the results, the efficacy of the fusion protein against rheumatoid arthritis was screened.
# In the P4 control group, TSL-4 fusion protein served as a control agent.
substance,measurement,setting,value
mIgG4-Fc-(GGGGS)3-HM-3 [TSL-4],Plasma concentration,"[1]; 12.5 mg/kg sc, 24.00 h, Mean",4248 ng/mL
same,Plasma concentration,"[1]; 12.5 mg/kg sc, 24.00 h, single rats No. 1-5",1822 ng/mL and 2513 ng/mL and 2747 ng/mL and 3966 ng/mL and 10192 ng/mL
same,Plasma concentration,"[1]; 12.5 mg/kg sc, 28.00 h, Mean",1907 ng/mL
same,Plasma concentration,"[1]; 12.5 mg/kg sc, 28.00 h, single rats No. 1-5",336 ng/mL and 1653 ng/mL and 766 ng/mL and 2703 ng/mL and 4077 ng/mL
same,Plasma concentration,"[1]; 12.5 mg/kg sc, 41.00 h, Mean",746 ng/mL
same,Plasma concentration,"[1]; 12.5 mg/kg sc, 41.00 h, single rats No. 1-5",241 ng/mL and 700 ng/mL and 417 ng/mL and 1185 ng/mL and 1189 ng/mL
same,Plasma concentration,"[1]; 12.5 mg/kg sc, 53.00 h, Mean",402 ng/mL
same,Plasma concentration,"[1]; 12.5 mg/kg sc, 53.00 h, single rats No. 1-5",131 ng/mL and 542 ng/mL and 247 ng/mL and 734 ng/mL and 357 ng/mL
same,Plasma concentration,"[1]; 12.5 mg/kg sc, 65.00 h, Mean",330 ng/mL
same,Plasma concentration,"[1]; 12.5 mg/kg sc, 65.00 h, single rats No. 1-5",127 ng/mL and 396 ng/mL and 181 ng/mL and 648 ng/mL and 299 ng/mL
same,Plasma concentration,"[1]; 12.5 mg/kg sc, 77.00 h, Mean",261 ng/mL
same,Plasma concentration,"[1]; 12.5 mg/kg sc, 77.00 h, single rats No. 1-5",64 ng/mL and 285 ng/mL and 160 ng/mL and 505 ng/mL and 290 ng/mL
same,AUC 0-77,[1]; 12.5 mg/kg single sc,116.1901 µg·h/mL
same,AUC 0-∞,[1]; 12.5 mg/kg single sc,128.4302 µg·h/mL
same,MRT 0-77,[1]; 12.5 mg/kg single sc,18.248 h
same,MRT 0-∞,[1]; 12.5 mg/kg single sc,20.882 h
same,Tmax,[1]; 12.5 mg/kg single sc,7 ± 0.707 h
same,ka,[1]; 12.5 mg/kg single sc,0.247
same,t½ka (absorption half-life),[1]; 12.5 mg/kg single sc,3.249 h
same,t½ke (elimination half-life),[1]; 12.5 mg/kg single sc,32.321 ± 4.935 h
same,"α, ke",[1]; 12.5 mg/kg single sc,0.149
same,Plasma concentration,"[1]; 37.5 mg/kg sc, 0.50 h, Mean",1402 ng/mL
same,Plasma concentration,"[1]; 37.5 mg/kg sc, 0.50 h, single rats No. 1-5",1180 ng/mL and 1202 ng/mL and 1816 ng/mL and 1534 ng/mL and 1277 ng/mL
same,Plasma concentration,"[1]; 37.5 mg/kg sc, 1.00 h, Mean",2169 ng/mL
same,Plasma concentration,"[1]; 37.5 mg/kg sc, 1.00 h, single rats No. 1-5",1974 ng/mL and 1514 ng/mL and 2370 ng/mL and 1151 ng/mL and 3838 ng/mL
same,Plasma concentration,"[1]; 37.5 mg/kg sc, 3.00 h, Mean",13349 ng/mL
same,Plasma concentration,"[1]; 37.5 mg/kg sc, 3.00 h, single rats No. 1-5",23044 ng/mL and 13341 ng/mL and 9819 ng/mL and 5861 ng/mL and 14678 ng/mL
same,Plasma concentration,"[1]; 37.5 mg/kg sc, 5.00 h, Mean",19696 ng/mL
same,Plasma concentration,"[1]; 37.5 mg/kg sc, 5.00 h, single rats No. 1-5",36313 ng/mL and 18726 ng/mL and 10891 ng/mL and 12949 ng/mL and 19600 ng/mL
same,Plasma concentration,"[1]; 37.5 mg/kg sc, 6.00 h, Mean",27920 ng/mL
same,Plasma concentration,"[1]; 37.5 mg/kg sc, 6.00 h, single rats No. 1-5",44277 ng/mL and 20173 ng/mL and 20450 ng/mL and 16158 ng/mL and 38541 ng/mL
same,Plasma concentration,"[1]; 37.5 mg/kg sc, 7.00 h, Mean",35272 ng/mL
same,Plasma concentration,"[1]; 37.5 mg/kg sc, 7.00 h, single rats No. 1-5",64960 ng/mL and 21479 ng/mL and 38009 ng/mL and 22359 ng/mL and 29552 ng/mL
same,Plasma concentration,"[1]; 37.5 mg/kg sc, 8.00 h, Mean",30478 ng/mL
same,Plasma concentration,"[1]; 37.5 mg/kg sc, 8.00 h, single rats No. 1-5",62784 ng/mL and 25446 ng/mL and 31080 ng/mL and 12944 ng/mL and 20137 ng/mL
same,Plasma concentration,"[1]; 37.5 mg/kg sc, 10.00 h, Mean",24736 ng/mL
same,Plasma concentration,"[1]; 37.5 mg/kg sc, 10.00 h, single rats No. 1-5",44656 ng/mL and 21055 ng/mL and 21153 ng/mL and 10006 ng/mL and 26810 ng/mL
same,Plasma concentration,"[1]; 37.5 mg/kg sc, 12.00 h, Mean",19172 ng/mL
same,Plasma concentration,"[1]; 37.5 mg/kg sc, 12.00 h, single rats No. 1-5",36576 ng/mL and 17149 ng/mL and 17361 ng/mL and 8919 ng/mL and 15856 ng/mL
same,Plasma concentration,"[1]; 37.5 mg/kg sc, 16.00 h, Mean",11084 ng/mL
same,Plasma concentration,"[1]; 37.5 mg/kg sc, 16.00 h, single rats No. 1-5",13903 ng/mL and 7767 ng/mL and 12942 ng/mL and 6885 ng/mL and 13925 ng/mL
same,Plasma concentration,"[1]; 37.5 mg/kg sc, 20.00 h, Mean",7721 ng/mL
same,Plasma concentration,"[1]; 37.5 mg/kg sc, 20.00 h, single rats No. 1-5",9514 ng/mL and 3313 ng/mL and 9915 ng/mL and 4605 ng/mL and 11259 ng/mL
same,Plasma concentration,"[1]; 37.5 mg/kg sc, 24.00 h, Mean",4523 ng/mL
same,Plasma concentration,"[1]; 37.5 mg/kg sc, 24.00 h, single rats No. 1-5",4801 ng/mL and 3205 ng/mL and 5617 ng/mL and 3076 ng/mL and 5918 ng/mL
same,Plasma concentration,"[1]; 37.5 mg/kg sc, 28.00 h, Mean",2285 ng/mL
same,Plasma concentration,"[1]; 37.5 mg/kg sc, 28.00 h, single rats No. 1-5",1952 ng/mL and 2730 ng/mL and 3953 ng/mL and 1833 ng/mL and 959 ng/mL
same,Plasma concentration,"[1]; 37.5 mg/kg sc, 41.00 h, Mean",920 ng/mL
same,Plasma concentration,"[1]; 37.5 mg/kg sc, 41.00 h, single rats No. 1-5",780 ng/mL and 912 ng/mL and 1824 ng/mL and 779 ng/mL and 303 ng/mL
same,Plasma concentration,"[1]; 37.5 mg/kg sc, 53.00 h, Mean",407 ng/mL
same,Plasma concentration,"[1]; 37.5 mg/kg sc, 53.00 h, single rats No. 1-5",431 ng/mL and 466 ng/mL and 510 ng/mL and 391 ng/mL and 237 ng/mL
same,Plasma concentration,"[1]; 37.5 mg/kg sc, 65.00 h, Mean",312 ng/mL
same,Plasma concentration,"[1]; 37.5 mg/kg sc, 65.00 h, single rats No. 1-5",357 ng/mL and 301 ng/mL and 370 ng/mL and 291 ng/mL and 243 ng/mL
same,Plasma concentration,"[1]; 37.5 mg/kg sc, 77.00 h, Mean",215 ng/mL
same,Plasma concentration,"[1]; 37.5 mg/kg sc, 77.00 h, single rats No. 1-5",269 ng/mL and 253 ng/mL and 169 ng/mL and 244 ng/mL and 138 ng/mL
same,AUC 0-77,[1]; 37.5 mg/kg single sc,166.338 µg·h/mL
same,AUC 0-∞,[1]; 37.5 mg/kg single sc,176.11 ± 39.59645 µg·h/mL
same,MRT 0-77,[1]; 37.5 mg/kg single sc,13.988 h
same,MRT 0-∞,[1]; 37.5 mg/kg single sc,15.755 h
same,Tmax,[1]; 37.5 mg/kg single sc,7 ± 0.707 h
same,ka,[1]; 37.5 mg/kg single sc,0.116
same,t½ka (absorption half-life),[1]; 37.5 mg/kg single sc,3.079 h
same,t½ke (elimination half-life),[1]; 37.5 mg/kg single sc,34.356 ± 1.578 h and 34.355 h
same,"α, ke",[1]; 37.5 mg/kg single sc,0.197
same,pharmacokinetic characteristics,"[1]; 4.17, 12.5, 37.5 mg/kg sc",consistent with linear pharmacokinetic characteristics
same,optimal (best) inhibition rate of splenic lymphocyte proliferation,"[2]; ConA 5 μg/mL, 48 h, MTT, best of the tested concentrations",63.3%
same,inhibition rate compared with the positive control group,[2]; positive group Dexamethasone 50 μmol/L,higher than that of the positive control group
same,inhibition ratio of mice splenic lymphocyte proliferation relative to group ConA,[2]; second round (Table 3),enhanced significantly
